What was measured:
Test in all cases: FRET or BRET; sensitized emission FRET in the nucleus of living HeLa cells transfected with CFP and YFP fusion vectors; mean FRET efficiency of cells above a 5% threshold
Settings in all cases: partners not purified
YFP-TAF10 = biological target: T1, YFP-TAF10 (human, UniProt Q12962 1-218)
T1 construct: human TAF10 as a YFP fusion; vector described in earlier work; source: HeLa cells, transfected, in living cells

YFP-SPT7L = biological target: T2, YFP-SPT7L (human, UniProt O94864 1-414)
T2 construct: human SPT7L as a YFP fusion; vector described in earlier work; source: HeLa cells, transfected, in living cells
T2 sequence (looked up): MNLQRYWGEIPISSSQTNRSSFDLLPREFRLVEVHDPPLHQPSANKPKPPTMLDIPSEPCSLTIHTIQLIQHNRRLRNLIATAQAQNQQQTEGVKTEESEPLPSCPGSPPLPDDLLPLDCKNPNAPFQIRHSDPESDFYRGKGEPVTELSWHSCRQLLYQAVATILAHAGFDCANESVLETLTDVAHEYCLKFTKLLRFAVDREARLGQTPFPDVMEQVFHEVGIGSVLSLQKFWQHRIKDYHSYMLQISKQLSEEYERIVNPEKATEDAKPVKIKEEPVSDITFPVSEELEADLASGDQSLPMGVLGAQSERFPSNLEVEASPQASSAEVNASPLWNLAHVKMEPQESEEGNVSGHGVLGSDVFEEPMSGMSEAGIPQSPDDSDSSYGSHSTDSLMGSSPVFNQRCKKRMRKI

YFP-TAF9 = biological target: T3, YFP-TAF9 (UniProt Q16594 1-264)
T3 construct: TAF9 as a YFP fusion; the construct is not described; source: HeLa cells, transfected, in living cells
T3 sequence (looked up): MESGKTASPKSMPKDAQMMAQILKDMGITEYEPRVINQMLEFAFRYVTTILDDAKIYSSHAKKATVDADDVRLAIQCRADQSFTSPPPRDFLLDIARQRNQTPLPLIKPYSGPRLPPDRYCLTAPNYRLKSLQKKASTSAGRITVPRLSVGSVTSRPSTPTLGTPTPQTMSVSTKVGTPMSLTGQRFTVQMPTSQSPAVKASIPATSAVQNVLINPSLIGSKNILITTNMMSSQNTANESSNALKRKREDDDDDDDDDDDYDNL

T1 sequence (Q12962 whole entry, the tested form may be a part): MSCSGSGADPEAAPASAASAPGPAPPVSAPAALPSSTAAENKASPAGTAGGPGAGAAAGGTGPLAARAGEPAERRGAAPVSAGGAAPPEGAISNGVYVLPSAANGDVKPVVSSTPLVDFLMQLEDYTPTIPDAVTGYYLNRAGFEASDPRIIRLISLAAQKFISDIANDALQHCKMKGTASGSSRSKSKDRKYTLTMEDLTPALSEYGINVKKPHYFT

B1: CFP-TAF8 (natural protein, UniProt Q7Z7C8 1-310, looked up)
chain: MADAAATAGAGGSGTRSGSKQSTNPADNYHLARRRTLQVVVSSLLTEAGFESAEKASVETLTEMLQSYISEIGRSAKSYCEHTARTQPTLSDIVVTLVEMGFNVDTLPAYAKRSQRMVITAPPVTNQPVTPKALTAGQNRPHPPHIPSHFPEFPDPHTYIKTPTYREPVSDYQVLREKAASQRRDVERALTRFMAKTGETQSLFKDDVSTFPLIAARPFTIPYLTALLPSELEMQQMEETDSSEQDEQTDTENLALHISMEDSGAEKENTSVLQQNPSLSGSRNGEENIIDNPYLRPVKKPKIRRKKSLS
notes: TAF8 as a CFP fusion; vector described in earlier work; source: HeLa cells, transfected, in living cells
With B1 the FRET efficiency (YFP-TAF10) was 16.9% and the FRET efficiency (YFP-SPT7L) was 15.8%.

B2: CFP-TAF6 (natural protein)
chain: not shown
notes: TAF6 as a CFP fusion; the construct is not described; source: HeLa cells, transfected, in living cells
In the case of B2, the FRET efficiency (YFP-TAF9) is reported as 27.1%.

From paper PMC1820849, “Identification of a Small TAF Complex and Its Role in the Assembly of TAF-Containing Complexes” (PLoS ONE, 2007)
